This data set deals with the molecule itself. The data set can be described thus: SDS-PAGE and size-exclusion chromatography; self-association. As for the experimental part: The affinity purified protein was analyzed by SDS-PAGE gel electrophoresis (FIG. 1). The D2-hexamers that were further purified on the size-exclusion column as described above were analyzed by SDS-PAGE (FIG. 1). […] This aggregation of the hexamers is so strong that it is not dissociated under the denaturing conditions used in SDS-PAGE. Additionally, both hexamer proteins migrated at the position of about 45 kd in a size-exclusion chromatogram. Without being bound to a particular theory, the surprising tendency of the hexamers to aggregate to form a trimer of hexamers may contribute to the improved immunoreactivity of the D2 hexamer.
Background: In gel filtration, larger molecules generally elute earlier.

Residue numbers refer to the chain shown, from its start.

B1: classic D2 hexamer with His tag (His-tagged recombinant deamidated gliadin protein) (other)
chain: MRGSHHHHHHGSPEFQPEQPQQSFPEQERPFGGGGSQPEQPQQSFPEQERPFGGGGSQPEQPQQSFPEQERPFGGGGSQPEQPQQSFPEQERPFGGGGSQPEQPQQSFPEQERPFGGGGSQPEQPQQSFPEQERPF
notes: also called classic DGP; DGP hexamer
Regarding B1, the binding result is on record as “binds”.

B2: lysine-containing D2 hexamer with His tag (His-tagged Recombinant Deamidated Gliadin Peptide with a lysine substituted for a glutamic acid residue at position … (other)
chain: B1 chain with E14K
notes: also called lysine-containing DGP; lysine-containing DGP hexamer
Turning to B2, the binding result is listed as “binds”.

For the origin of these results see patent US20130288274A1 (BIO RAD LABORATORIES, published 2013).
